This note sets out measurements from doi:10.1101/2024.10.25.620210, “The plastid-encoded RNA polymerase structures a logistic chain for light-induced photosynthesis” (bioRxiv, 2024).

The test addresses T1, β’’ subunit of the Sinapis alba plastid-encoded RNA polymerase (SaPEP) (Sinapis alba, UniProt Q9THV5 1-1384).
T1 construct: source: native, in the PEP purified from Sinapis alba cotyledon chloroplasts (heparin, MonoQ, Superose 6)
T1 sequence (looked up): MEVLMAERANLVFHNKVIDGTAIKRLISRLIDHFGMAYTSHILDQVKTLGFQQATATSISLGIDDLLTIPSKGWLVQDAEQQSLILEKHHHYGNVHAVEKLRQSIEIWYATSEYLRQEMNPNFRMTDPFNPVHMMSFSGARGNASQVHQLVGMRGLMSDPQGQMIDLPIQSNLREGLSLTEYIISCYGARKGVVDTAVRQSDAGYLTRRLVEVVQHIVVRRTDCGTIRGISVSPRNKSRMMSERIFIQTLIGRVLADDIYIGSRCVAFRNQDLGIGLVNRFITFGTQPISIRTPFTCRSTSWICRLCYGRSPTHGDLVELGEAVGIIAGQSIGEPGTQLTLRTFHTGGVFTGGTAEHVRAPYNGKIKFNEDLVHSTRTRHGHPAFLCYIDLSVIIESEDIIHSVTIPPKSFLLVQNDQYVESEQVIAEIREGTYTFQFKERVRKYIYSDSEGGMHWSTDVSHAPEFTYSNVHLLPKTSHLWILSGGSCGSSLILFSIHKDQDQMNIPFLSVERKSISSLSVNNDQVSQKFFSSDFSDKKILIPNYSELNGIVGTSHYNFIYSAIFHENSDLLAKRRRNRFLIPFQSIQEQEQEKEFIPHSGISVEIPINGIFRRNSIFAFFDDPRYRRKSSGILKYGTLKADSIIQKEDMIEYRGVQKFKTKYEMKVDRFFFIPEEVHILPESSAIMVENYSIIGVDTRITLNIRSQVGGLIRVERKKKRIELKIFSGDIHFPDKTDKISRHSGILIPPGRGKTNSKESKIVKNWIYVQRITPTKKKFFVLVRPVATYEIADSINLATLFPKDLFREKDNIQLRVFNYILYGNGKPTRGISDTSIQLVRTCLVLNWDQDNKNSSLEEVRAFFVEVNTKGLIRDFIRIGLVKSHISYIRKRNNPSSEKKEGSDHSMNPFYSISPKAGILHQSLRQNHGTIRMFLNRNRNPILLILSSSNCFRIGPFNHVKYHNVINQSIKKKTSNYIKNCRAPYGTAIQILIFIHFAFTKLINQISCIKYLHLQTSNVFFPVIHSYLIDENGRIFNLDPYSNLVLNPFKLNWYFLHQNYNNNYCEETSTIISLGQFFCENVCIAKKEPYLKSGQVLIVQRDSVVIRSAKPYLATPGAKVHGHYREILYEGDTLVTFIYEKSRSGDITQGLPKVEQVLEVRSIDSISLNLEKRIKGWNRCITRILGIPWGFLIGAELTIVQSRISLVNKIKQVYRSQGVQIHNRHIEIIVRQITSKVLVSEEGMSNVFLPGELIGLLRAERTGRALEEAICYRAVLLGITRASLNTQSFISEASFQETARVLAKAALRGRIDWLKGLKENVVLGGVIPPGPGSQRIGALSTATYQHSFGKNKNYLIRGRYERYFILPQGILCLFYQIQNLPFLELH
Put plainly: cryo-EM structure; native 21-subunit SaPEP purified from S. alba cotyledon chloroplasts; graphene oxide grids; consensus map 3.0 Å, multibody and composite maps; open conformation. To be noted: both partners purified.

B1: β subunit of the Sinapis alba plastid-encoded RNA polymerase (SaPEP) (natural protein, UniProt P46818 1-1078, looked up)
chain: MINAKKMLGDGKEGTSTIPGFNQIQFEGFYRFIDQGLIEELSKFPKIEDIDHEIEFQLFVETYQLVEPLIKERDAVYESLTYSSELYVSAGLIWKTNRNMQEQRIFIGNIPLMNSLGTSIVNGIYRVVINQILQSPGIYYQSELDHNGISVYTGTIISDWGGRLELEIDKKARIWARVSRKQKISILVLSSAMGSNLREILENVCYPEIFLSFLTDKEKKKIGSKENAILEFYQQFSCVGGDPIFSESLCKELQKKFFHQRCELGRIGRRNINWRLNLNIPQNNIFLLPRDILAAADHLIGMKFGMGTLDDMNHLKNKRIRSVADLLQDQLGLALARLENVVKGTIGGAIRHKLIPPTQNLVTSTPLTTTYESFFGFHPLSQVLDRTNPLTQIVHGRKLSYLGPGGLTGRTANFRIRDIHPSHYGRICPIDTSEGINVGLIGSLSIHARIGDWGSLESPFYELVEKSKKAQIRMLFLSPSQDEYYMIAAGNSLALNRGIQEEQVVPARYRQEFLTIAWEEVHLRSIFPFQYFSIGASLIPFIEHNDANRALMSSNMQRQAVPLSRSEKCIVGTGLERQVALDSGVPAIAEHEGKILYTDTEKIILSGNENTLSIPLIMYQRSNKNTCMHQKPQVPRGKCIKKGQILADGAATVGGELALGKNVLVAYMPWEGYNFEDAVLISECLVYGDIYTSFHIRKYEIQTHVTTQGPERITKEIPHLEGRLLRNLDKNGIVMLGSWVETGDILVGKLTPQVAKESSYAPEDRLLRAILGIQVSTSKETCLKLPIGGRGRVIDVRWVQKKGGSSYNPEIIRVYISQKREIKVGDKVAGRHGNKGIISKILPRQDMPYLQDGRPVDMVFNPLGVPSRMNVGQIFECSLGLAGSLLDRHYRIAPFDERYEQEASRKLVFSELYEASKQTANPWVFEPEYPGKSRIFDGRTGDPFEQPVIIGKPYILKLIHQVDDKIHGRSSGHYALVTQQPLRGRSKQGGQRVGEMEVWALEGFGVAHILQEMLTYKSDHIRARQEVLGTTIIGGTIPKPEDAPESFRLLVRELRSLALELNHFLVSEKNFQINRKEV
notes: plastid-encoded β subunit of the S. alba PEP catalytic core; source: native, in the PEP purified from Sinapis alba cotyledon chloroplasts (heparin, MonoQ, Superose 6)
On to B1, for which the binding result is “binds”.
